Results reported in PMC2760139.

What was measured:
[1] = biological target: mature dengue virus type 2 capsid (C) protein with substitutions L50S-L54S, recombinant (dengue virus type 2) (UniProt P29990); assay: SEC-MALS
[2] = test system: DENV2 capsid protein C, mature WT (Dengue virus type 2 (cDNA clone GenBank U87411)); assay: filter binding
[3] = biological target: mature dengue virus type 2 capsid (C) protein, wild type, recombinant (dengue virus type 2) (UniProt P29990); assay: SEC-MALS

Substance: mature dengue virus type 2 capsid (C) protein with substitutions L50S-L54S, recombinant (from UniProt P29990 1-100) (natural protein)
- stoichiometry N [1]: 2

Substance: DENV 5'UTR RNA probe (viral 5' terminal region nt 1-160)
- Kd [2]: 22 nM

Substance: mature dengue virus type 2 capsid (C) protein, wild type, recombinant (from UniProt P29990) (natural protein)
- stoichiometry N [3]: 2
